# Measured values: patent US11702475B2, “Cysteine engineered fibronectin type III domain binding molecules” (Janssen Biotech, Inc., priority 2013, dated 2023)
# B1: P54AR4-47: EGFR-binding FN3 domain, SEQ ID NO: 20 (protein)
# chain: LPAPKNLVVSEVTEDSLRLSWGYNGDHFDSFLIQYQESEKVGEAINLTVPGSERSYDLTGLKPGTEYTVSIYGVHNVYKDTNMRGLPLSAEFTT
# modifications: EGFR binding FN3 domain
# Tests used:
# [1] = target: T1, EGFR-Fc (recombinant human extracellular domain of EGFR fused to an IgG1 Fc) (Homo sapiens, UniProt P00533); assay: Affinity of FN3 domains to EGFR-Fc by surface plasmon resonance (ProteOn), incl. off-rate screen; format: binding; settings: SPR ProteOn, 1:1 Langmuir fit
# T1 construct: purchased R&D Systems
# Protocol: Select EGFR-binding FN3 domains were screened to identify those with slow off-rates (koff) in binding to EGFR-Fc on a ProteOn XPR-36 instrument (Bio-Rad) to facilitate selection of high affinity binders. Goat anti-human Fc IgG (R&D systems), at a concentration of 5 μg/mL, was directly immobilized via amine coupling (at pH 5.0) on all 6 ligand channels in horizontal orientation on the chip with a flow rate of 30 μL/min in PBS containing 0.005% Tween-20. The immobilization densities averaged about 1500 Response Units (RU) with less than 5% variation among different channels. EGFR-Fc was captured on the anti-human Fc IgG surface to a density around 600 RU in vertical ligand orientation. All tested FN3 domains were normalized to a concentration of 1 μM and tested for their binding in horizontal orientation. […] The dissociation phase was monitored for 10 minutes at a flow rate of 100 μL/min. […]
# Binding affinity of selected EGFR-binding FN3 domains to recombinant EGFR extracellular domain was further characterized by surface Plasmon resonance methods using a Proteon Instrument (BioRad). […] The dissociation phase for all concentrations of each EGFR-binding FN3 domain was monitored at a flow rate of 100 μL/min for 30 minutes (for those with koff˜10^−2 s^−1 from off-rate screening), or 1 hour (for those with koff˜10^−3 s^−1 or slower). […]
# [2] = target: T2, EGFR on A431 cells (Homo sapiens, UniProt P00533); assay: A431 cell binding assay; settings: 1 hour room temperature
# T2 construct: A431 cells (American Type Culture Collection, cat. #CRL-1555) over-express EGFR; host or cells: A431
# Protocol: To assess the ability of different FN3 domains to bind EGFR in a more physiological context, their ability to bind A431 cells was measured. A431 cells (American Type Culture Collection, cat. #CRL-1555) over-express EGFR with ˜2×10^6 receptors per cell. Cells were plated at 5,000/well in opaque black 96-well plates and allowed to attach overnight at 37° C., in a humidified 5% CO2 atmosphere. FN3 domain-expressing bacterial lysates were diluted 1,000-fold into FACS stain buffer (Becton Dickinson) and incubated for 1 hour at room temperature in triplicate plates. Lysates were removed and cells were washed 3 times with 150 μL/well of FACS stain buffer. Cells were incubated with 50 μL/well of anti-penta His-Alexa488 antibody conjugate (Qiagen) diluted 1:100 in FACS stain buffer for 20 minutes at room temperature. Cells were washed 3 times with 150 μL/well of FACS stain buffer, after which wells were filled with 100 μL of FACS stain buffer and read for fluorescence at 488 nm using an Acumen eX3 reader. […]
# A431 cells were plated at 5,000/well in opaque black 96-well plates and allowed to attach overnight at 37° C., in a humidified 5% CO2 atmosphere. […] Cells were washed 3 times with 150 μL/well of FACS stain buffer, after which wells were filled with 100 μL of FACS stain buffer and read for fluorescence at 488 nm using an Acumen eX3 reader. […]
molecule,measurement,setting,value
B1,Kd,[1],2.51 nM
same,EC50,[2],8.6 nM
